Molecular target: GST-fused RACK1, WT (human, UniProt P63244 1-317)
Assay: pull-down

B1: His6-YTHDF2, WT (FL) (natural protein)
chain: MSASSLLEQRPKGQGNKVQNGSVHQKDGLNDDDFEPYLSPQARPNNAYTAMSDSYLPSYYSPSIGFSYSLGEAAWSTGGDTAMPYLTSYGQLSNGEPHFLPDAMFGQPGALGSTPFLGQHGFNFFPSGIDFSAWGNNSSQGQSTQSSGYSSNYAYAPSSLGGAMIDGQSAFANETLNKAPGMNTIDQGMAALKLGSTEVASNVPKVVGSAVGSGSITSNIVASNSLPPATIAPPKPASWADIASKPAKQQPKLKTKNGIAGSSLPPPPIKHNMDIGTWDNKGPVAKAPSQALVQNIGQPTQGSPQPVGQQANNSPPVAQASVGQQTQPLPPPPPQPAQLSVQQQAAQPTRWVAPRNRGSGFGHNGVDGNGVGQSQAGSGSTPSEPHPVLEKLRSINNYNPKDFDWNLKHGRVFIIKSYSEDDIHRSIKYNIWCSTEHGNKRLDAAYRSMNGKGPVYLLFSVNGSGHFCGVAEMKSAVDYNTCAGVWSQDKWKGRFDVRWIFVKDVPNSQLRHIRLENNENKPVTNSRDTQEVPLEKAKQVLKIIASYKHTTSIFDDFSHYEKRQEEEESVKKERQGRGK
Does B1 bind?
Result: binds
